Measurements: patent US20170298096A1 (CANIMGUIDE THERAPEUTICS, published 2017)
No end group written: not given here.

T1: His-tagged P3028 peptide (PGE73) (human)
T1 construct: albumin-derived peptide, in solution at 0.5 ug/mL; not shown: His-tag
T1 peptide: VFDEFKPLVEEPQNLIK

T2: His-tagged P3028 (human, also: His-tag, terminus and sequence not given here)
T2 construct: used in solution in the PEPSCAN (rampo) ELISA; also called PGE73; His-tag-P3028; not shown: His tag
T2 peptide: VFDEFKPLVEEPQNLIK

B1: SEQ ID NO: 268 AKLDTFFVKLSLFTER (peptide)
peptide: AKLDTFFVKLSLFTER
B2: SEQ ID NO: 297 KKVDTFFVKLSLFTER (peptide)
peptide: KKVDTFFVKLSLFTER
B3: SEQ ID NO: 304 KKLDCFFVKLSLFTER (peptide)
peptide: KKLDCFFVKLSLFTER
B4: SEQ ID NO: 275 MKLDTFFVKLSLFTER (peptide)
peptide: MKLDTFFVKLSLFTER
B5: SEQ ID NO: 296 KKTDTFFVKLSLFTER (peptide)
peptide: KKTDTFFVKLSLFTER
B6: SEQ ID NO: 298 KKLATFFVKLSLFTER (peptide)
peptide: KKLATFFVKLSLFTER
B7: SEQ ID NO: 287 KKGDTFFVKLSLFTER (peptide)
peptide: KKGDTFFVKLSLFTER
B8: SEQ ID NO: 280 TKLDTFFVKLSLFTER (peptide)
peptide: TKLDTFFVKLSLFTER
B9: SEQ ID NO: 284 KKDDTFFVKLSLFTER (peptide)
peptide: KKDDTFFVKLSLFTER
B10: SEQ ID NO: 299 KKLETFFVKLSLFTER (peptide)
peptide: KKLETFFVKLSLFTER
B11: SEQ ID NO: 293 KKQDTFFVKLSLFTER (peptide)
peptide: KKQDTFFVKLSLFTER
B12: SEQ ID NO: 288 KKHDTFFVKLSLFTER (peptide)
peptide: KKHDTFFVKLSLFTER
B13: SEQ ID NO: 283 KKCDTFFVKLSLFTER (peptide)
peptide: KKCDTFFVKLSLFTER
B14: SEQ ID NO: 302 KKLWTFFVKLSLFTER (peptide)
peptide: KKLWTFFVKLSLFTER
B15: SEQ ID NO: 291 KKMDTFFVKLSLFTER (peptide)
peptide: KKMDTFFVKLSLFTER
B16: SEQ ID NO: 279 RKLDTFFVKLSLFTER (peptide)
peptide: RKLDTFFVKLSLFTER
B17: SEQ ID NO: 305 KKLDMFFVKLSLFTER (peptide)
peptide: KKLDMFFVKLSLFTER
B18: SEQ ID NO: 269 DKLDTFFVKLSLFTER (peptide)
peptide: DKLDTFFVKLSLFTER
B19: SEQ ID NO: 292 KKNDTFFVKLSLFTER (peptide)
peptide: KKNDTFFVKLSLFTER
B20: SEQ ID NO: 286 KKFDTFFVKLSLFTER (peptide)
peptide: KKFDTFFVKLSLFTER
B21: SEQ ID NO: 295 KKSDTFFVKLSLFTER (peptide)
peptide: KKSDTFFVKLSLFTER
B22: SEQ ID NO: 276 NKLDTFFVKLSLFTER (peptide)
peptide: NKLDTFFVKLSLFTER
B23: SEQ ID NO: 289 KKIDTFFVKLSLFTER (peptide)
peptide: KKIDTFFVKLSLFTER
B24: SEQ ID NO: 271 GKLDTFFVKLSLFTER (peptide)
peptide: GKLDTFFVKLSLFTER
B25: SEQ ID NO: 303 KKLYTFFVKLSLFTER (peptide)
peptide: KKLYTFFVKLSLFTER
B26: SEQ ID NO: 300 KKLITFFVKLSLFTER (peptide)
peptide: KKLITFFVKLSLFTER
B27: SEQ ID NO: 307 KKLDPFFVKLSLFTER (peptide)
peptide: KKLDPFFVKLSLFTER
B28: SEQ ID NO: 309 KKLDRFFVKLSLFTER (peptide)
peptide: KKLDRFFVKLSLFTER
B29: SEQ ID NO: 281 VKLDTFFVKLSLFTER (peptide)
peptide: VKLDTFFVKLSLFTER
B30: SEQ ID NO: 278 QKLDTFFVKLSLFTER (peptide)
peptide: QKLDTFFVKLSLFTER
B31: SEQ ID NO: 294 KKRDTFFVKLSLFTER (peptide)
peptide: KKRDTFFVKLSLFTER
B32: SEQ ID NO: 273 IKLDTFFVKLSLFTER (peptide)
peptide: IKLDTFFVKLSLFTER
B33: SEQ ID NO: 301 KKLVTFFVKLSLFTER (peptide)
peptide: KKLVTFFVKLSLFTER
B34: SEQ ID NO: 282 KKADTFFVKLSLFTER (peptide)
peptide: KKADTFFVKLSLFTER
B35: SEQ ID NO: 272 HKLDTFFVKLSLFTER (peptide)
peptide: HKLDTFFVKLSLFTER
B36: SEQ ID NO: 270 EKLDTFFVKLSLFTER (peptide)
peptide: EKLDTFFVKLSLFTER
B37: SEQ ID NO: 308 KKLDQFFVKLSLFTER (peptide)
peptide: KKLDQFFVKLSLFTER
B38: SEQ ID NO: 277 PKLDTFFVKLSLFTER (peptide)
peptide: PKLDTFFVKLSLFTER
B39: SEQ ID NO: 285 KKEDTFFVKLSLFTER (peptide)
peptide: KKEDTFFVKLSLFTER
B40: SEQ ID NO: 306 KKLDNFFVKLSLFTER (peptide)
peptide: KKLDNFFVKLSLFTER
B41: SEQ ID NO: 274 LKLDTFFVKLSLFTER (peptide)
peptide: LKLDTFFVKLSLFTER
B42: SEQ ID NO: 290 KKKDTFFVKLSLFTER (peptide)
peptide: KKKDTFFVKLSLFTER
B43: SEQ ID NO 382 (peptide)
peptide: KKLDTFFVKLSLFNER
B44: SEQ ID NO 383 (peptide)
peptide: KKLDTFFVKLSLFPER
B45: SEQ ID NO 393 (peptide)
peptide: KKLDTFFVKLSLFTEY
B46: SEQ ID NO 392 (peptide)
peptide: KKLDTFFVKLSLFTET
B47: SEQ ID NO 390 (peptide)
peptide: KKLDTFFVKLSLFTEN
B48: SEQ ID NO 389 (peptide)
peptide: KKLDTFFVKLSLFTEK
B49: SEQ ID NO 385 (peptide)
peptide: KKLDTFFVKLSLFVER
B50: SEQ ID NO 384 (peptide)
peptide: KKLDTFFVKLSLFSER
B51: SEQ ID NO 386 (peptide)
peptide: KKLDTFFVKLSLFWER
B52: SEQ ID NO 387 (peptide)
peptide: KKLDTFFVKLSLFTDR
B53: SEQ ID NO 388 (peptide)
peptide: KKLDTFFVKLSLFTEF
B54: SEQ ID NO 49 (peptide)
peptide: TFFVKLSLFTER
B55: SEQ ID NO 46 (peptide)
peptide: KLDTFFVKLSLFTER
B56: SEQ ID NO 53 (peptide)
peptide: KLSLFTER
B57: SEQ ID NO 76 (peptide)
peptide: KKFFVKLSLFTER
B58: FVKL (peptide)
peptide: FVKL
B59: SEQ ID NO 52 (peptide)
peptide: VKLSLFTER
B60: SEQ ID NO 50 (peptide)
peptide: FFVKLSLFTER
B61: SEQ ID NO 47 (peptide)
peptide: LDTFFVKLSLFTER
B62: SEQ ID NO 51 (peptide)
peptide: FVKLSLFTER
B63: SEQ ID NO 34 (peptide)
peptide: KKLDTFFVKLSLFTE
B64: SEQ ID NO 48 (peptide)
peptide: DTFFVKLSLFTER
B65: SEQ ID NO 64 (peptide)
peptide: KKLTFFVKLSLFTER
B66: SEQ ID NO 68 (peptide)
peptide: KKLDTFFVKLSFTER
B67: SEQ ID NO 391 (peptide)
peptide: KKLDTFFVKLSLFTER
B68: SEQ ID NO 65 (peptide)
peptide: KKLDTFVKLSLFTER
B69: SEQ ID NO 66 (peptide)
peptide: KKLDTFFKLSLFTER

Target: T1, His-tagged P3028 peptide (PGE73)
Assay: PEPSCAN ELISA, peptide on card
Description: (§1) After washing, the peroxidase substrate 2,2′-azine-di-3-ethylbenzthiazoline sulfonate (ABTS) and 2 μL of 3% H2O2 were added. The binding capacity of the mAb was measured as a color development at 405 nm (optical density, OD405). The color development was quantified with a charge-coupled device (CCD)—camera and an image processing system.
(§2) The OD405-values obtained by a CCD-camera was considered as raw data values (“rampo values,” “rampo units,” or “rampo scores”). […] First the CCD-camera made a picture of the card before peroxidase coloring and then again a picture after the peroxidase coloring. […] These values were copied into an excel file and labeled as a raw data file. One follow-up manipulation was allowed. Sometimes a well can contain an air-bubble resulting in a false-positive value. If manual inspection of the cards detect an air-bubble the value are set to 0 for that well.

Row | Binder | RAMPO Score
1 | B1 | 466
2 | B2 | 377
3 | B3 | 449
4 | B4 | 457
5 | B5 | 451
6 | B6 | 494
7 | B7 | 563
8 | B8 | 493
9 | B9 | 492
10 | B10 | 417
11 | B11 | 473
12 | B12 | 477
13 | B13 | 432
14 | B14 | 443
15 | B15 | 460
16 | B16 | 523
17 | B17 | 475
18 | B18 | 373
19 | B19 | 374
20 | B20 | 393
21 | B21 | 393

Row | Binder | RAMPO Score
22 | B22 | 445
23 | B23 | 454
24 | B24 | 367
25 | B25 | 422
26 | B26 | 430
27 | B27 | 427
28 | B28 | 430
29 | B29 | 442
30 | B30 | 455
31 | B31 | 370
32 | B32 | 483
33 | B33 | 424
34 | B34 | 427
35 | B35 | 428
36 | B36 | 396
37 | B37 | 535
38 | B38 | 387
39 | B39 | 528
40 | B40 | 436
41 | B41 | 449
42 | B42 | 386

Target: T2, His-tagged P3028
Assay: PEPSCAN ELISA (rampo)
Description: as §1, §2

Row | Binder | rampo score relative to the P28R control sample | binding result
43 | B43 | ≥ 98 % of P28R control | –
44 | B44 | ≥ 98 % of P28R control | –
45 | B45 | ≥ 98 % of P28R control | –
46 | B46 | ≥ 98 % of P28R control | –
47 | B47 | ≥ 98 % of P28R control | –
48 | B48 | ≥ 98 % of P28R control | –
49 | B49 | ≥ 98 % of P28R control | –
50 | B50 | ≥ 98 % of P28R control | –
51 | B51 | ≥ 98 % of P28R control | –
52 | B52 | ≥ 98 % of P28R control | –
53 | B53 | ≥ 98 % of P28R control | –
54 | B54 | – | binds
55 | B55 | – | binds
56 | B56 | – | binds
57 | B57 | – | binds
58 | B58 | – | binds
59 | B59 | – | binds
60 | B60 | – | binds
61 | B61 | – | binds
62 | B62 | – | binds
63 | B63 | – | binds
64 | B64 | – | binds
65 | B65 | – | binds
66 | B66 | – | binds
67 | B67 | ≥ 98 % of P28R control | –
68 | B68 | – | binds
69 | B69 | – | binds
